Results: patent US20180155450A1 (Sanofi, published 2018)

T1: recombinant human IL4 (human, UniProt P05112 25-153)
T1 construct: bought
T1 sequence (looked up): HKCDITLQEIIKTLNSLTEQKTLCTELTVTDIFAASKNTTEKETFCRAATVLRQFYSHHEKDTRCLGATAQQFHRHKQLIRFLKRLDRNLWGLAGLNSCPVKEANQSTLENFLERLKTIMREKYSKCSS


Tests used:
recombinant human IL4 [1] = target: T1, recombinant human IL4; experiment: SPR (Biacore 3000), antibody captured, antigen as analyte
Protocol: Kinetic binding analysis by Biacore was performed as follows. Surface plasmon resonance technology on a Biacore 3000 (GE Healthcare) was used for detailed kinetic characterization of purified antibodies. […] Chip surfaces were regenerated with 10 mM glycine pH 2.5. Kinetic parameters were analyzed and calculated in the BIAevaluation program package v4.1 using a flow cell without captured antibody as a reference.

recombinant human IL4 [2] = target: T1, recombinant human IL4; experiment: cell-based or functional assay

Binder	Kd (recombinant human IL4 [1]) [nM]	IC50 Cellular Assay IL4 [nM] (HEK-Blue IL-4/IL-13 reporter cells, SEAP) (recombinant human IL4 [2])
CODV-Ig Batch ID 506 (IL4 × IL13 on HC; L1 GQPKAAP, L2 TVAAP, L3 S, L4 TK) (bispecific antibody) heavy: not shown light: DIVLTQSPASLAVSLGQRATISCRASESVDSYGQSYMHWYQQKAGQPPKLLIYLASNLESGVPARFSGSGSRTDFTLTIDPVQAEDAATYYCQQNAEDSRTFGGGTKLEIKGQPKAAPDIQMTQSPASLSVSVGDTITLTCHASQNIDVWLSWFQQKPGNIPKLLIYKASNLHTGVPSRFSGSGSGTGFTLTISSLQPEDIATYYCQQAHSYPFTFGGGTKLEIKTVAAPRTVAAPSVFIFPPSDEQLKSGTASVVCLLNNFYPREAKVQWKVDNALQSGNSQESVTEQDSKDSTYSLSSTLTLSKADYEKHKVYACEVTHQGLSSPVTKSFNRGEC	0.007	0.045
CODV-Ig Batch ID 501 (IL4 × IL13 on HC; L1 ASTKGPS, L2 TKGPS, L3 S, L4 RT) (bispecific antibody) heavy: not shown light: DIVLTQSPASLAVSLGQRATISCRASESVDSYGQSYMHWYQQKAGQPPKLLIYLASNLESGVPARFSGSGSRTDFTLTIDPVQAEDAATYYCQQNAEDSRTFGGGTKLEIKASTKGPSDIQMTQSPASLSVSVGDTITLTCHASQNIDVWLSWFQQKPGNIPKLLIYKASNLHTGVPSRFSGSGSGTGFTLTISSLQPEDIATYYCQQAHSYPFTFGGGTKLEIKTKGPSRTVAAPSVFIFPPSDEQLKSGTASVVCLLNNFYPREAKVQWKVDNALQSGNSQESVTEQDSKDSTYSLSSTLTLSKADYEKHKVYACEVTHQGLSSPVTKSFNRGEC	0.001	0.034
CODV-Ig Batch ID 502 (IL4 × IL13 on HC; L1 ASTKGPS, L2 TVAAP, L3 S, L4 QP) (bispecific antibody) heavy: not shown light: DIVLTQSPASLAVSLGQRATISCRASESVDSYGQSYMHWYQQKAGQPPKLLIYLASNLESGVPARFSGSGSRTDFTLTIDPVQAEDAATYYCQQNAEDSRTFGGGTKLEIKASTKGPSDIQMTQSPASLSVSVGDTITLTCHASQNIDVWLSWFQQKPGNIPKLLIYKASNLHTGVPSRFSGSGSGTGFTLTISSLQPEDIATYYCQQAHSYPFTFGGGTKLEIKTVAAPRTVAAPSVFIFPPSDEQLKSGTASVVCLLNNFYPREAKVQWKVDNALQSGNSQESVTEQDSKDSTYSLSSTLTLSKADYEKHKVYACEVTHQGLSSPVTKSFNRGEC	0.003	0.049
CODV-Ig Batch ID 503 (IL4 × IL13 on HC; L1 ASTKGPS, L2 TVAAP, L3 S, L4 SS) (bispecific antibody) heavy: not shown light: DIVLTQSPASLAVSLGQRATISCRASESVDSYGQSYMHWYQQKAGQPPKLLIYLASNLESGVPARFSGSGSRTDFTLTIDPVQAEDAATYYCQQNAEDSRTFGGGTKLEIKASTKGPSDIQMTQSPASLSVSVGDTITLTCHASQNIDVWLSWFQQKPGNIPKLLIYKASNLHTGVPSRFSGSGSGTGFTLTISSLQPEDIATYYCQQAHSYPFTFGGGTKLEIKTVAAPRTVAAPSVFIFPPSDEQLKSGTASVVCLLNNFYPREAKVQWKVDNALQSGNSQESVTEQDSKDSTYSLSSTLTLSKADYEKHKVYACEVTHQGLSSPVTKSFNRGEC	0.003	0.047
CODV-Ig Batch ID 504 (IL4 × IL13 on HC; L1 RTVAAPS, L2 QPKAA, L3 S, L4 TK) (bispecific antibody) heavy: not shown light: DIVLTQSPASLAVSLGQRATISCRASESVDSYGQSYMHWYQQKAGQPPKLLIYLASNLESGVPARFSGSGSRTDFTLTIDPVQAEDAATYYCQQNAEDSRTFGGGTKLEIKRTVAAPSDIQMTQSPASLSVSVGDTITLTCHASQNIDVWLSWFQQKPGNIPKLLIYKASNLHTGVPSRFSGSGSGTGFTLTISSLQPEDIATYYCQQAHSYPFTFGGGTKLEIKQPKAARTVAAPSVFIFPPSDEQLKSGTASVVCLLNNFYPREAKVQWKVDNALQSGNSQESVTEQDSKDSTYSLSSTLTLSKADYEKHKVYACEVTHQGLSSPVTKSFNRGEC	0.008	0.042
CODV-Ig Batch ID 505 (IL4 × IL13 on HC; L1 GQPKAAP, L2 TKGPS, L3 S, L4 RT) (bispecific antibody) heavy: not shown light: DIVLTQSPASLAVSLGQRATISCRASESVDSYGQSYMHWYQQKAGQPPKLLIYLASNLESGVPARFSGSGSRTDFTLTIDPVQAEDAATYYCQQNAEDSRTFGGGTKLEIKGQPKAAPDIQMTQSPASLSVSVGDTITLTCHASQNIDVWLSWFQQKPGNIPKLLIYKASNLHTGVPSRFSGSGSGTGFTLTISSLQPEDIATYYCQQAHSYPFTFGGGTKLEIKTKGPSRTVAAPSVFIFPPSDEQLKSGTASVVCLLNNFYPREAKVQWKVDNALQSGNSQESVTEQDSKDSTYSLSSTLTLSKADYEKHKVYACEVTHQGLSSPVTKSFNRGEC	0.006	0.033
CODV-Ig Batch ID 507 (IL4 × IL13 on HC; L1 GQPKAAP, L2 QPKAA, L3 S, L4 RT) (bispecific antibody) heavy: not shown light: DIVLTQSPASLAVSLGQRATISCRASESVDSYGQSYMHWYQQKAGQPPKLLIYLASNLESGVPARFSGSGSRTDFTLTIDPVQAEDAATYYCQQNAEDSRTFGGGTKLEIKGQPKAAPDIQMTQSPASLSVSVGDTITLTCHASQNIDVWLSWFQQKPGNIPKLLIYKASNLHTGVPSRFSGSGSGTGFTLTISSLQPEDIATYYCQQAHSYPFTFGGGTKLEIKQPKAARTVAAPSVFIFPPSDEQLKSGTASVVCLLNNFYPREAKVQWKVDNALQSGNSQESVTEQDSKDSTYSLSSTLTLSKADYEKHKVYACEVTHQGLSSPVTKSFNRGEC	0.001	0.04
